Patent US20040229241A1, “Cloned mammalian polyamine oxidase” (priority 2001, published 2004)

B1: purified recombinant human PAOh1/SMO (Homo sapiens) (protein)
chain: MQSCESSGDSADDPLSRGLRRRGQPRVVVIGAGLAGLAAAKALLEQGFTDVTVLEASSHIGGRVQSVKLGHATFELGATWIHGSHGNPIYHLAEANGLLEETTDGERSVGRISLYSKNGVACYLTNHGRRIPKDVVEEFSDLYNEVYNLTQEFFRHDKPVNAESQNSVGVFTREEVRNRIRNDPDDPEATKRLKLAMIQQYLKVESCESSSHSMDEVSLSAFGEWTEIPGAHHIIPSGFMRVVELLAEGIPAHVIQLGKPVRCIHWDQASARPRGPEIEPRGEGDHNHDTGEGGQGGEEPRGGRWDEDEQWSVVVECEDCELIPADHVIVTVSLGVLKRQYTSFFRPGLPTEKVAAIHRLGIGTTDKIFLEFEEPFWGPECNSLQFVWEDEAESHTLTYPPELWYRKICGFDVLYPPERYGHVLSGWICGEEALVMEKCDDEAVAEICTEMLRQFTGNPNIPKPRRILRSAWGSNPYFRGSYSYTQVGSSGADVEKLAKPLPYTESSKTAPMQVLFSGEATHRKYYSTTHGALLSGQREAARLIEMYRDLFQQGT
B2: human PAOh1 (Homo sapiens) (protein)
chain: B1 chain
notes: made in house; host or cells: TnT-coupled wheat germ extract (Promega), template pPAOh1 (pcDNA3.1)

What was measured:
[1] = substrate: NCCCNCCCCNCCCN; assay: cells, lysate or membranes named; settings: other: named compound as substrate, Lineweaver-Burk; 37.0 °C
[2] = substrate: NCCCNCCCCNCCCN; assay: PAO activity of in vitro TnT (wheat germ) produced PAOh1, fluorescent H2O2 assay; type: biochemical, human; settings: other: Lineweaver/Burke transformation; pH 9.0; 37.0 °C
Experimental: In Vitro Transcription and Translation. In vitro transcription and translation reactions were performed with the TnT-coupled wheat germ extract system. Parallel reactions were prepared by adding an unlabeled amino acid mixture to one reaction and a [^35S]methionine containing amino acid mixture to the other, according to the supplied protocol. Vector pcDNA3.1 and pPAOh1 were linearized by SalI restriction and served as the templates. The labeled translation reactions products were separated by 10% SDS-PAGE, and radioactivity on the labeled PAO band was determined by Phosphor image analysis using Image Quant software (Molecular Dynamics, Sunnyvale, Calif.).
Determination of PAO Enzyme Activity. The cultured H157 cells with or without treatment of 10 μM N^1, N″-bis(ethyl)norspermine (BENSpm) were homogenized with a Dounce tissue homogenizer in ice-cold 0.083 M sodium borate buffer (pH 9.0). […] The enzyme activity was stopped by the addition of 2.0 ml of 0.1 M NaOH solution. The fluorescence intensity was measured with excitation at 323 nm and emission at 426 nm. […] Protein content of the cellular homogenate was determined using the Bio-Rad protein assay kit (Bio-Rad). […] For determination of PAO activity in the product of the unlabeled TnT reaction, 10 μl of TnT reaction were used in the place of the homogenate. […]

Row | Protein | Km [1] [µM] | Vmax [1] [μmol/mg protein/min] | Km [2] [µM]
1 | B1 | 1.63 | 7.72 | –
2 | B2 | – | – | 18
